Assay results from patent publication US7101851 (dated 2006).
Bridges are numbered along the chain shown (N, C = ends). Where no end group is shown, it is not given here. [ ]: non-standard residue; d: D form. The star is where a group is joined. Biotin = O=C1N[C@H]2[C@H](CS[C@H]2CCCCC(=O)*)N1; Oic = O=C(O)[C@@H]1C[C@@H]2CCCC[C@@H]2N1; 2Nal = N[C@@H](Cc1ccc2ccccc2c1)C(=O)O; Hyp = O=C(O)[C@@H]1C[C@@H](O)CN1; hSer(lactone) = O=C1OCC[C@@H]1N*; Pip = O=C(O)[C@@H]1CCCCN1; NMeA = CN[C@@H](C)C(=O)O; Sar = CNCC(=O)O

T1: alpha subunit of the human FcεRI receptor expressed on Chinese hamster ovary cells (human, UniProt P12319 26-257)
T1 construct: whole, on cells; also called CHO FcεRI+ cells
T1 sequence (looked up): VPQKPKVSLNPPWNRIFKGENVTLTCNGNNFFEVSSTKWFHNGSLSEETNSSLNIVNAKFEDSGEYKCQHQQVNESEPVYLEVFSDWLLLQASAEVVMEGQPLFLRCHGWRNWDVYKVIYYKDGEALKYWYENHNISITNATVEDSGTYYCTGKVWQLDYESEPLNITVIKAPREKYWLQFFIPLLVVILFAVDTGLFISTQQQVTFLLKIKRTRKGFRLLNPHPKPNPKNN

T2: alpha subunit of the human FcεRI receptor expressed on cells (human, UniProt P12319 26-257)
T2 construct: whole, on cells; on rat basophil RBL-48 cells in the histamine release assay; also called CHO FcεRI+ cells; cell surface expressed FcεRI
T2 sequence (looked up): T1 sequence (looked up)

B1: IGE125 (peptide)
peptide: Ac-NLPRCTEGPAWGWVCM
modifications: disulfide 5-15 (inferred)
notes: synthetic
B2: IGE133 (peptide)
peptide: Ac-NLPRCTEGPWGWVC[hSer(lactone)]
modifications: disulfide 5-14 (inferred)
B3: IGE086 (peptide)
peptide: Ac-NLPRCTEG[NMeA]WGWVCM-NH2
modifications: disulfide 5-14
notes: synthetic
B4: IGE068 (peptide)
peptide: LPRCTEGPWGWVCM-NH2
modifications: disulfide 4-13 (inferred)
notes: synthetic
B5: IGE076 (peptide)
peptide: NLPRCTEGPWGWVCMAY
modifications: disulfide 5-14 (inferred)
notes: synthetic
B6: IGE087 (peptide)
peptide: Ac-NLPRCTEG[Sar]WGWVCM-NH2
modifications: disulfide 5-14
notes: synthetic
B7: IGE100 (peptide)
peptide: Ac-NLPRCTEG[Oic]WGWVCM
modifications: disulfide 5-14 (inferred)
notes: synthetic
B8: IGE097 (peptide)
peptide: Ac-NLPRCTEG[Sar]WGWVCM
modifications: disulfide 5-14 (inferred)
notes: synthetic
B9: IGE107 (peptide)
peptide: Ac-NLPCTEGPWGWVCM
modifications: disulfide 4-13 (inferred)
notes: synthetic; As printed it lacks the Arg before the first Cys
B10: IGE092 (peptide)
peptide: Ac-NLPRCTEGPWGWVC-NH2
modifications: disulfide 5-14 (inferred)
notes: synthetic
B11: IGE103 (peptide)
peptide: Ac-NLPRCTEGP[2Nal]GWVCM
modifications: disulfide 5-14 (inferred)
notes: synthetic
B12: IGE075 (peptide)
peptide: NLPRCTEGPWGWVCI
modifications: disulfide 5-14 (inferred)
notes: synthetic
B13: IGE079 (peptide)
peptide: NLPRCTEAPWGWVCM
modifications: disulfide 5-14 (inferred)
notes: synthetic
B14: IGE106 (peptide)
peptide: Ac-NLPRCTEGPVGWVCM
modifications: disulfide 5-14 (inferred)
notes: synthetic
B15: IGE209 (peptide)
peptide: Ac-NLPRCTEGPWGWACM
modifications: disulfide 5-14 (inferred)
notes: synthetic
B16: IGE208 (peptide)
peptide: Ac-NLPRCAEGPWGWVCM
modifications: disulfide 5-14 (inferred)
notes: synthetic
B17: IGE109 (peptide)
peptide: Ac-NLPRCTEGPWGLVCM
modifications: disulfide 5-14 (inferred)
notes: synthetic
B18: IGE077 (peptide)
peptide: NLPRCTEGPWGWYCM
modifications: disulfide 5-14 (inferred)
notes: synthetic
B19: IGE062 (peptide)
peptide: NLPRCTEGPWGWVCM
modifications: disulfide 5-14 (inferred)
notes: synthetic
B20: IGE096 (peptide)
peptide: Ac-NLPRCTEG[NMeA]WGWVCM
modifications: disulfide 5-14 (inferred)
notes: synthetic
B21: IGE069 (peptide)
peptide: PRCTEGPWGWVCM-NH2
modifications: disulfide 3-12 (inferred)
notes: synthetic
B22: IGE043 (peptide)
peptide: NLPRCTEGPWGWVCMAAD-NH2
modifications: disulfide 5-14 (inferred)
notes: synthetic
B23: IGE058 (peptide)
peptide: Ac-NLPRCTEGPWGWVCM-NH2
modifications: disulfide 5-14 (inferred)
notes: synthetic
B24: IGE101 (peptide)
peptide: Ac-NLPRCTEG[Hyp]WGWVCM
modifications: disulfide 5-14 (inferred)
notes: synthetic
B25: IGE090 (peptide)
peptide: Ac-EIQECTEGPWGWVCM-NH2
modifications: disulfide 5-14 (inferred)
notes: synthetic
B26: IGE078 (peptide)
peptide: Biotin-NLPRCTEGPWGWVCM
modifications: disulfide 5-14 (inferred)
notes: synthetic
B27: IGE095 (peptide)
peptide: Ac-NLPRCTEG[Pip]WGWVCM
modifications: disulfide 5-14 (inferred)
notes: synthetic
B28: IGE091 (peptide)
peptide: NLPRCTEGPWGWVC-NH2
modifications: disulfide 5-14 (inferred)
notes: synthetic
B29: IGE085 (peptide)
peptide: Ac-NLPRCTEG[Pip]WGWVCM-NH2
modifications: disulfide 5-14
notes: synthetic
B30: IGE063 (peptide)
peptide: Ac-NLPRCTEGPWGWVCM
modifications: disulfide 5-14 (inferred)
notes: synthetic
B31: IGE068 (peptide)
peptide: LPRCTEGPWGWVCM-NH2
modifications: disulfide 4-13 (inferred)
B32: IGE059 (peptide)
peptide: Ac-NLPRCTAGPWGWVCMAAD-NH2
modifications: disulfide 5-14 (inferred)
notes: also called E7A
B33: IGE069 (peptide)
peptide: PRCTEGPWGWVCM-NH2
modifications: disulfide 3-12 (inferred)
B34: IGE063 (peptide)
peptide: Ac-NLPRCTEGPWGWVCM
modifications: disulfide 5-14 (inferred)
B35: IGE079 (peptide)
peptide: NLPRCTEAPWGWVCM
modifications: disulfide 5-14 (inferred)
notes: also called G8A
B36: IGE074 (peptide)
peptide: NLPRCTEGPWAWVCM
modifications: disulfide 5-14 (inferred)
B37: IGE073 (peptide)
peptide: NLPRCTEGPWGAVCM
modifications: disulfide 5-14 (inferred)
notes: also called W12A
B38: IGE070 (peptide)
peptide: NLPRCTEGAWGWVCM
modifications: disulfide 5-14 (inferred)
notes: also called P9A
B39: IGE082 (peptide)
peptide: Ac-NLPRCTEGPWGWVC
modifications: disulfide 5-14 (inferred)
B40: synthetic peptide EIQECTEGPWGWFCVGSG (SEQ ID NO:8) (peptide)
peptide: EIQECTEGPWGWFCVGSG
modifications: disulfide 5-14 (inferred)
notes: also called peptide of clone g8b.11

The binders below were run against T1, alpha subunit of the human FcεRI … (assay: inhibition of 125I-IgE binding to CHO cells expressing human FcεRI alpha subunit).
Procedure: To determine the ability of peptides to inhibit IgE binding to FcεRI, a cell-based binding assay was used with radiolabeled IgE. Chinese hamster ovary cells expressing the alpha subunit of the human FcεRI receptor were cultured overnight in Falcon 96 well microtiter plates at a concentration of 5 ×10^4 cells per well. The following day the cells were rinsed three times with PBS and then once with F12/DMEM. Peptide stocks were reconstituted in 100 mM Hepes buffered water, pH 7.2, at a concentration of 5 mg/mL. Working concentrations of the peptide were diluted in assay buffer (see below). 75 uL of a desired concentration of peptide was added to the top row of a separate 96 well microtiter plate and serially diluted 1:3 in 50 uL of the assay buffer (F12/DMEM, 1% BSA, 0.05% NaN_3 and 0.025 mM Hepes pH 7.2). Starting concentrations ranged from 50–500 uM. Next, 50 uL of the diluted peptide was transferred to the 96 microtiter well plate containing a monolayer of CHO FcεRI+ cells. […] Cells were […]
For B1, the IC50 was 259 µM. B2 showed an IC50 of 2.5 µM. Work on B3 yielded an IC50 of 60 µM. B4 showed an IC50 of 3.3 µM. B5 gave an IC50 of 2 µM. B6 gave an IC50 of 136 µM. Work on B7 yielded an IC50 of 364 µM. B8 was tested, and the IC50 was 84 µM. With B9 the IC50 was 28 µM. B10 was tested, and the IC50 was 20 µM. B11 showed an IC50 of 1.2 µM. In the case of B12, the IC50 is reported as 1.4 µM. With B13 the IC50 was 462 µM. Binder B14 has an IC50 of 84 µM. B15 was tested, and the IC50 was 14.3 µM. Work on B16 yielded an IC50 of 6.85 µM. Binder B17 has an IC50 of 10.6 µM. B18 gave an IC50 of 126 µM. B19 showed an IC50 of 1 µM. B20 showed an IC50 of 44 µM. Work on B21 yielded an IC50 of 34 µM. For B22, the IC50 was 1.4 µM. B23 showed an IC50 of 1.8 µM. Work on B24 yielded an IC50 of 580 µM. Binder B25 has an IC50 of 7.6 µM. Work on B26 yielded an IC50 of 3.4 µM. For B27, the IC50 was 23 µM. Binder B28 has an IC50 of 12.8 µM. For B29, the IC50 was 38.5 µM. Work on B30 yielded an IC50 of 1.8 µM.

The binders below were run against T2, alpha subunit of the human FcεRI … (assay: inhibition of 125I-IgE binding to CHO cells expressing human FcεRI alpha).
Procedure: To determine the ability of peptides to inhibit IgE binding to FcεRI, a cell-based binding assay was used with radiolabeled IgE. Chinese hamster ovary cells expressing the alpha subunit of the human FcεRI receptor were cultured overnight in Falcon 96 well microtiter plates at a concentration of 5 ×10^4 cells per well. The following day the cells were rinsed three times with PBS and then once with F12/DMEM. Peptide stocks were reconstituted in 100 mM Hepes buffered water, pH 7.2, at a concentration of 5 mg/mL. Working concentrations of the peptide were diluted in assay buffer (see below). 75 uL of a desired concentration of peptide was added to the top row of a separate 96 well microtiter plate and serially diluted 1:3 in 50 uL of the assay buffer (F12/DMEM, 1% BSA, 0.05% NaN_3 and 0.025 mM Hepes pH 7.2). Starting concentrations ranged from 50–500 uM. Next, 50 uL of the diluted peptide was transferred to the 96 microtiter well plate containing a monolayer of CHO FcεRI+ cells. […] Cells were
Alanine substitutions in IGE063 (SEQ ID NO:49) were used to assess sidechain contributions. The P9A (IGE070, SEQ ID NO:52) substitution had the largest impact with a >500× reduction in binding. […] Clearly the alanine substitutions at G8, P9, W10, G11 and W12 all had major impacts on binding FcεRI.
B31 was tested, and the “fold reduction in inhibition (against IGE063)” value was 3 fold. B32 was tested, and the “fold reduction in binding (against IGE063)” value (“fold reduction in binding” below) was 6 fold. B33 was tested, and the “fold reduction in inhibition (against IGE063)” value was 34 fold. B34 was tested, and the IC50 was about 1 µM. With B35 the “fold reduction in binding” value was 256 fold. For B36, the “fold reduction in binding” value was 30 fold. For B37, the “fold reduction in binding” value was 65 fold. In the case of B38, the “fold reduction in binding” value is reported as over 500 fold. With B39 the “fold reduction in binding” value was over 400 fold. For B40, the IC50 was 37 µM and the “fold improvement in activity over the … (SEQ ID NO:1) peptide” value was over 4 fold.
